pIC50, pKd: −log10 of the molar value. Values belong to the sequence of their own block, whether it stands above or below them.
Columns and labels:
HLA-B*51:01 [1] = assay: IEDB peptide-MHC binding, purified MHC/competitive/radioactivity; ≥ and ≤ were set here for values at or beyond the usual limits of such assays
HLA-B*53:01 [2] = assay: as above
HLA-B*54:01 [3] = assay: as above
HLA-B*07:02 [4] = assay: IEDB peptide-MHC binding, purified MHC/competitive/radioactivity; filed as Kd, often an IC50 or EC50 that approximates it; ≥ and ≤ were set here for values at or beyond the usual limits of such assays
HLA-B*35:01 [5] = assay: as above
HLA-B*07:02 [6] = assay: IEDB peptide-MHC binding, purified MHC/competitive/radioactivity; ≥ and ≤ were set here for values at or beyond the usual limits of such assays
HLA-B*35:01 [7] = assay: as above
HLA-B*54:01 [8] = assay: IEDB peptide-MHC binding, purified MHC/competitive/radioactivity; filed as Kd, often an IC50 or EC50 that approximates it; ≥ and ≤ were set here for values at or beyond the usual limits of such assays
HLA-B*51:01 [9] = assay: as above
HLA-B*53:01 [10] = assay: as above
[11] = source organism: Human papillomavirus type 6b
[12] = source organism: human papillomavirus 11
[13] = source organism: Human immunodeficiency virus type 1 (RF/HAT ISOLATE)
[14] = source organism: Candida albicans
[15] = source organism: Hepatitis C virus (isolate Taiwan)
[16] = source organism: Human immunodeficiency virus 1

Sequence: IPFLTKFKL
pIC50 (HLA-B*51:01 [1]; [11]): 7.51 | pIC50 (HLA-B*53:01 [2]; [11]): 6.24 | pIC50 (HLA-B*54:01 [3]; [11]): 6.08 | pKd (HLA-B*07:02 [4]; [11]): 5.62 | pKd (HLA-B*35:01 [5]; [11]): 5.05

pIC50 (HLA-B*07:02 [6]; source organism: Homo sapiens): 8.00 | pIC50 (HLA-B*35:01 [7]; source organism: Homo sapiens): 6.75 | pIC50 (HLA-B*51:01 [1]; source organism: Homo sapiens): 6.79 | pIC50 (HLA-B*53:01 [2]; source organism: Homo sapiens): 7.64 | pKd (HLA-B*54:01 [8]; source organism: Homo sapiens): 4.90
Sequence: SPATLLLVL

pKd (HLA-B*07:02 [4]; source organism: Homo sapiens): ≤ 4.60 | pKd (HLA-B*35:01 [5]; source organism: Homo sapiens): ≤ 4.60 | pKd (HLA-B*51:01 [9]; source organism: Homo sapiens): 5.26 | pKd (HLA-B*53:01 [10]; source organism: Homo sapiens): ≤ 4.60 | pKd (HLA-B*54:01 [8]; source organism: Homo sapiens): ≤ 5.30
Sequence: IPEPEGPDA

Sequence: QPKKVKRRL
pKd (HLA-B*07:02 [4]; [12]): 5.54 | pKd (HLA-B*35:01 [5]; [12]): ≤ 4.60 | pKd (HLA-B*51:01 [9]; [12]): 5.49 | pKd (HLA-B*53:01 [10]; [12]): ≤ 4.60 | pKd (HLA-B*54:01 [8]; [12]): ≤ 4.60

pIC50 (HLA-B*07:02 [6]; source organism: Homo sapiens): 6.62 | pIC50 (HLA-B*51:01 [1]; source organism: Homo sapiens): 8.37 | pIC50 (HLA-B*54:01 [3]; source organism: Homo sapiens): 7.70
Sequence: LPQPPICTI

Sequence: SPISNVANA
pIC50 (HLA-B*07:02 [6]; [12]): 6.18 | pIC50 (HLA-B*54:01 [3]; [12]): 7.25 | pKd (HLA-B*35:01 [5]; [12]): ≤ 4.60 | pKd (HLA-B*51:01 [9]; [12]): 5.26 | pKd (HLA-B*53:01 [10]; [12]): ≤ 4.60

Sequence: FPISPIETV
pIC50 (HLA-B*51:01 [1]; [13]): 6.83 | pIC50 (HLA-B*53:01 [2]; [13]): 6.60 | pIC50 (HLA-B*54:01 [3]; [13]): 8.01 | pKd (HLA-B*07:02 [4]; [13]): 5.46 | pKd (HLA-B*35:01 [5]; [13]): 5.98

pIC50 (HLA-B*07:02 [6]; [14]): 7.29 | pIC50 (HLA-B*51:01 [1]; [14]): 6.87 | pIC50 (HLA-B*54:01 [3]; [14]): 7.77 | pKd (HLA-B*35:01 [5]; [14]): ≤ 4.60 | pKd (HLA-B*53:01 [10]; [14]): 5.45
Sequence: FPRFKFVWV

pIC50 (HLA-B*07:02 [6]; source organism: Homo sapiens): 6.76 | pIC50 (HLA-B*51:01 [1]; source organism: Homo sapiens): 6.44 | pIC50 (HLA-B*54:01 [3]; source organism: Homo sapiens): 7.64 | pKd (HLA-B*35:01 [5]; source organism: Homo sapiens): ≤ 4.60 | pKd (HLA-B*53:01 [10]; source organism: Homo sapiens): ≤ 4.60
Sequence: VPLAHSSSA

Sequence: YPCTVNFTI
pIC50 (HLA-B*51:01 [1]; [15]): 7.92 | pIC50 (HLA-B*53:01 [2]; [15]): 6.99 | pKd (HLA-B*07:02 [4]; [15]): 4.97

pIC50 (HLA-B*35:01 [7]; source organism: Homo sapiens): 6.94 | pIC50 (HLA-B*51:01 [1]; source organism: Homo sapiens): 6.09 | pIC50 (HLA-B*53:01 [2]; source organism: Homo sapiens): 7.47 | pKd (HLA-B*54:01 [8]; source organism: Homo sapiens): ≤ 4.60
Sequence: LPTNASLSF

pIC50 (HLA-B*35:01 [7]; source organism: Homo sapiens): 6.35 | pIC50 (HLA-B*51:01 [1]; source organism: Homo sapiens): 9.34 | pIC50 (HLA-B*53:01 [2]; source organism: Homo sapiens): 8.18 | pIC50 (HLA-B*54:01 [3]; source organism: Homo sapiens): 6.53
Sequence: MPREDAHFI

pIC50 (HLA-B*35:01 [7]; source organism: Homo sapiens): 6.40 | pIC50 (HLA-B*51:01 [1]; source organism: Homo sapiens): 7.85 | pIC50 (HLA-B*53:01 [2]; source organism: Homo sapiens): 6.21 | pIC50 (HLA-B*54:01 [3]; source organism: Homo sapiens): 6.57 | pKd (HLA-B*07:02 [4]; source organism: Homo sapiens): 5.95
Sequence: LPFRNCPRF

pIC50 (HLA-B*07:02 [6]; source organism: Homo sapiens): 6.22 | pIC50 (HLA-B*51:01 [1]; source organism: Homo sapiens): 7.85 | pIC50 (HLA-B*53:01 [2]; source organism: Homo sapiens): 7.70 | pIC50 (HLA-B*54:01 [3]; source organism: Homo sapiens): 6.37 | pKd (HLA-B*35:01 [5]; source organism: Homo sapiens): 5.98
Sequence: MPNQAQMRI

Sequence: FPVRPQVPL
pIC50 (HLA-B*51:01 [1]; [16]): 6.17 | pIC50 (HLA-B*53:01 [2]; [16]): 6.72

pIC50 (HLA-B*35:01 [7]; source organism: Homo sapiens): 6.69 | pIC50 (HLA-B*53:01 [2]; source organism: Homo sapiens): 6.39 | pKd (HLA-B*51:01 [9]; source organism: Homo sapiens): 5.71 | pKd (HLA-B*54:01 [8]; source organism: Homo sapiens): ≤ 4.60
Sequence: HPEDTGQVF

Sequence: FPYLVAYQA
pIC50 (HLA-B*51:01 [1]; [15]): 7.24 | pKd (HLA-B*07:02 [4]; [15]): 4.74 | pKd (HLA-B*53:01 [10]; [15]): 5.77

pIC50 (HLA-B*51:01 [1]; source organism: Homo sapiens): 8.09 | pIC50 (HLA-B*54:01 [3]; source organism: Homo sapiens): 6.66 | pKd (HLA-B*07:02 [4]; source organism: Homo sapiens): 5.10 | pKd (HLA-B*35:01 [5]; source organism: Homo sapiens): ≤ 4.60 | pKd (HLA-B*53:01 [10]; source organism: Homo sapiens): 5.15
Sequence: LPSPACQLV

pIC50 (HLA-B*07:02 [6]; [14]): 7.85 | pIC50 (HLA-B*35:01 [7]; [14]): 7.82 | pIC50 (HLA-B*51:01 [1]; [14]): 8.06 | pIC50 (HLA-B*53:01 [2]; [14]): 8.17 | pIC50 (HLA-B*54:01 [3]; [14]): 7.82
Sequence: FPASFFIKL

From the Immune Epitope Database (IEDB)
